The target in this assay is T1, murine CD40 (mouse, UniProt P27512 20-289).
T1 construct: Endogenous CD40 on cells in the tumor microenvironment of C57BL/6J mice; also called mouse CD40; muCD40
T1 sequence: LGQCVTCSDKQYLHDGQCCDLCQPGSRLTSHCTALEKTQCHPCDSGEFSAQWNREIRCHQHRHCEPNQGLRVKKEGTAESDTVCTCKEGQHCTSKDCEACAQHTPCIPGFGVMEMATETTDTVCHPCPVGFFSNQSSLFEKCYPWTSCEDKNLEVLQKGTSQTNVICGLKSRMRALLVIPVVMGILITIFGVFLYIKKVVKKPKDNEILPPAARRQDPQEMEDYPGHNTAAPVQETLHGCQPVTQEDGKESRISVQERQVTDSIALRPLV
Description: in vivo fluorescence imaging of the Alexa647-labelled antibody in TC-1 tumors (devoid of FAP expression), four days after i.p. injection. An excerpt: To assess FAP-CD40 antibody access to the TC-1 tumor, we intraperitoneally injected the anti-FAP-CD40 antibody labeled with Alexa647 into TC-1 and mEERL95 tumor-bearing mice that underwent local irradiation. The antibody was detectable in both tumors four days upon administration. No significant difference in the fluorescence intensity was detected in both TC-1 and mEERL95 tumors (FIG. 4H) which present similar CD40 mRNA expression levels (FIG. 4C).

B1: muCD40 x FAP (28H1) 4+1 bispecific antibody (VH on knob and VL on hole) (P1AD9139) (bispecific antibody)
light: DTVLTQSPALAVSPGERVTISCRASDSVSTLMHWYQQKPGQQPKLLIYLASHLESGVPARFSGSGSGTDFTLTIDPVEADDTATYYCQQSWNDPWTFGGGTKLELKRTVAAPSVFIFPPSDEQLKSGTASVVCLLNNFYPREAKVQWKVDNALQSGNSQESVTEQDSKDSTYSLSSTLTLSKADYEKHKVYACEVTHQGLSSPVTKSFNRGEC
heavy 1: not shown
heavy 2: EVQLVESDGGLVQPGRSLKLPCAASGFTFSDYYMAWVRQAPTKGLEWVASISYDGSSTYYRDSVKGRFTISRDNAKSTLYLQMDSLRSEDTATYYCGRHSSYFDYWGQGVMVTVSSASTKGPSVFPLAPSSKSTSGGTAALGCLVKDYFPEPVTVSWNSGALTSGVHTFPAVLQSSGLYSLSSVVTVPSSSLGTQTYICNVNHKPSNTKVDKKVEPKSCDGGGGSGGGGSEVQLVESDGGLVQPGRSLKLPCAASGFTFSDYYMAWVRQAPTKGLEWVASISYDGSSTYYRDSVKGRFTISRDNAKSTLYLQMDSLRSEDTATYYCGRHSSYFDYWGQGVMVTVSSASTKGPSVFPLAPSSKSTSGGTAALGCLVKDYFPEPVTVSWNSGALTSGVHTFPAVLQSSGLYSLSSVVTVPSSSLGTQTYICNVNHKPSNTKVDKKVEPKSCDKTHTCPPCPAPEAAGGPSVFLFPPKPKDTLMISRTPEVTCVVVDVSHEDPEVKFNWYVDGVEVHNAKTKPREEQYNSTYRVVSVLTVLHQDWLNGKEYKCKVSNKALGAPIEKTISKAKGQPREPQVCTLPPSRDELTKNQVSLSCAVKGFYPSDIAVEWESNGQPENNYKTTPPVLDSDGSFFLVSKLTVDKSRWQQGNVFSCSVMHEALHNHYTQKSLSLSPGGGGGSGGGGSGGGGSGGGGSEIVLTQSPGTLSLSPGERATLSCRASQSVSRSYLAWYQQKPGQAPRLLIIGASTRATGIPDRFSGSGSGTDFTLTISRLEPEDFAVYYCQQGQVIPPTFGQGTKVEIK
notes: Four anti-mouse CD40 (FGK4.5) Fabs, human IgG1 P329G LALA knob-into-hole Fc, and 28H1 VH on the knob chain and VL on the hole chain; That paragraph says only 'anti-FAP-CD40 antibody'; also called FAP-CD40; anti-FAP-CD40
For B1, the binding result is “binds”.

The record behind these values is patent US20230340154A1 (Hoffmann-La Roche, published 2023).
